The test deals with C3d, the covalently bound activation product of complement C3, in mouse myocardium (mouse (endogenous in C57BL/6 heart)) (UniProt P01027). Kind of test: ex vivo organ biodistribution (gamma counting); organs removed after imaging, weighed and gamma counted; heart to blood ratio of injected dose per gram.
Chain of UniProt P01027 (P01027 1002-1303): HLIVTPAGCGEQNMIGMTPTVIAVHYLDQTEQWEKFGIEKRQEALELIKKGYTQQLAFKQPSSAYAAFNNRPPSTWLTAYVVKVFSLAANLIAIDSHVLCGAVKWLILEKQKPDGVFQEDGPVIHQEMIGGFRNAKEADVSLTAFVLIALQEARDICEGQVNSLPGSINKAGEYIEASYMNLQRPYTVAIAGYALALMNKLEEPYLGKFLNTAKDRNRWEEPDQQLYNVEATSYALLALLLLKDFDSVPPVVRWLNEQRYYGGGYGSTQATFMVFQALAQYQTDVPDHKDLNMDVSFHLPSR

“99mTechnecium-labelled recombinant complement receptor 2 (SCR1 and SCR2 of human CR2) (domain or fragment)”: the heart to blood ratio of %ID/g (heart to blood ratio of %ID/g) was 1.17.

Values taken from paper PMC5700950.
